Assays:
[1] = biological target: T1, human CLDN18.1 (human, UniProt P56856 1-261); assay: flow cytometry on HEK293-CLDN18.1 cells, one antibody concentration
T1 construct: on HEK293-CLDN18.1 cells; also called Claudin-18 splice variant 1; NP_057453.1

[2] = biological target: T2, human CLDN18.2 (human); assay: flow cytometry on MKN45-CLDN18.2-high cells; unit taken from the concentration axis
T2 construct: also called hCLDN18.2; Claudin-18 splice variant 2
Description: (§1) Log-phase HEK293-CLDN18.2 and NUGC4 cells were re-suspended in PBS. After 3× cell wash by using FACS washing buffer (PBS+2% FBS), 100 μl/well diluted hybridoma Abs with a range from 400 nM to 0.002 nM were added into each well for incubation at 4° C. for 30 min. Again, cells were washed 3 times by using FACS washing buffer and then incubated with 100 μl/well goat anti-mIgG-FITC (1:400 dilution) at 4° C. for another 30 min. After a final 3× wash using FACS washing buffer, cells were analyzed by flow Cytometry.

[3] = biological target: T2, human CLDN18.2; assay: FACS, NUGC4 cells
[4] = biological target: T2, human CLDN18.2; assay: FACS, HEK293-CLDN18.2 cells
[5] = biological target: T2, human CLDN18.2; assay: FACS, MKN45-CLDN18.2-high cells
Description: as §1

[6] = biological target: T2, human CLDN18.2; assay: flow cytometry on HEK293-CLDN18.2 cells; unit taken from the concentration axis
Description: as §1

[7] = biological target: human CLDN18.2-mRFP G65P (human); assay: FACS, transfected HEK293, 10 µg/ml antibody;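 also: antibody binding read by flow cytometry with a FITC-labelled anti-human IgG secondary, gated on RFP-positive cells, each mutant signal expressed against wild-type CLDN18.2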
Description: (§2) The transfected HEK293-CLDN18.2 or HEK293-CLDN18.1 cell were resuspended in PBS with 2% BSA at density of 10\hat{ }5/well, 100 μl/well. […] Next, cells were washed 3 times by FACS washing buffer and incubated with 100 μl/well goat anti-hIgG (H+L)-FITC (1:200 dilution) at 4° C. for another 30 min. Finally, cells were washed 3 times by FACS washing buffer and analyzed by Flow Cytometry. To analyze binding to CLDN18.2 transfected cells, the RFP positive cells were used for control gating.

[8] = biological target: human CLDN18.2-mRFP L69I (human); assay: FACS, transfected HEK293, 10 µg/ml antibody;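 also: antibody binding read by flow cytometry with a FITC-labelled anti-human IgG secondary, gated on RFP-positive cells, each mutant signal expressed against wild-type CLDN18.2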
Description: as §2

[9] = biological target: T3, human CLDN18.2-mRFP1, wild-type (human); assay: FACS, transfected HEK293, 10 µg/ml antibody;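 also: antibody binding read by flow cytometry with a FITC-labelled anti-human IgG secondary, gated on RFP-positive cells, each mutant signal expressed against wild-type CLDN18.2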
T3 construct: human CLDN18.2 (amino acid 1-261) fused to mRFP1 (amino acid 1-225), transiently expressed in HEK293 cells; also called wild-type human CLDN18.2-mRFP
Description: as §2

[10] = biological target: human CLDN18.2-mRFP Q29M (human); assay: FACS, transfected HEK293, 10 µg/ml antibody;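 also: antibody binding read by flow cytometry with a FITC-labelled anti-human IgG secondary, gated on RFP-positive cells, each mutant signal expressed against wild-type CLDN18.2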
Description: as §2

[11] = biological target: human CLDN18.2-mRFP E56Q (human); assay: FACS, transfected HEK293, 10 µg/ml antibody
Description: as §2

[12] = biological target: human CLDN18.2-mRFP A42S (human); assay: FACS, transfected HEK293, 10 µg/ml antibody
Description: as §2

[13] = biological target: human CLDN18.2-mRFP N45Q (human); assay: FACS, transfected HEK293, 10 µg/ml antibody
Description: as §2

[14] = biological target: human CLDN18.2-mRFP N37D (human); assay: FACS, transfected HEK293, 10 µg/ml antibody
Description: as §2

[15] = biological target: human CLDN18.2-mRFP Q47E (human); assay: FACS, transfected HEK293, 10 µg/ml antibody
Description: as §2

[16] = biological target: T2, human CLDN18.2; assay: cell-based or functional assay

human CLDN18.2-mRFP G65P (human), sequence (chain, as listed by the source G65P G65P limits assumed): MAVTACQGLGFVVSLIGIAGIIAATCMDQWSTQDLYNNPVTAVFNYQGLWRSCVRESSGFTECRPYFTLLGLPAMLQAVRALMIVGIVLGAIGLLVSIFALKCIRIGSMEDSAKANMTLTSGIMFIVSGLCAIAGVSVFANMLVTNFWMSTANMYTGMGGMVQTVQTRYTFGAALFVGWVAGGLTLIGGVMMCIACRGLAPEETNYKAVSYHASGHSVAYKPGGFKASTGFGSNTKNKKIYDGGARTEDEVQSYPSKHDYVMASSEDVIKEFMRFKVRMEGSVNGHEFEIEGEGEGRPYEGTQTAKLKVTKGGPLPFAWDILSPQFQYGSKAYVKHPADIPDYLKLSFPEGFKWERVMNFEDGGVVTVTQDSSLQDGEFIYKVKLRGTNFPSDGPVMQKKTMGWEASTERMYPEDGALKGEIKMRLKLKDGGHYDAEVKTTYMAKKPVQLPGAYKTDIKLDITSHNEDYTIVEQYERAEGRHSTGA
human CLDN18.2-mRFP A42S (human), sequence (chain, as listed by the source A42S A42S limits assumed): as the sequence (chain, as listed by the source G65P G65P limits assumed) above, with A42S, P65G counted along it
human CLDN18.2-mRFP N45Q (human), sequence (chain, as listed by the source N45Q N45Q limits assumed): as the sequence (chain, as listed by the source G65P G65P limits assumed) above, with N45Q, P65G counted along it
human CLDN18.2-mRFP L69I (human), sequence (chain, as listed by the source L69I L69I limits assumed): as the sequence (chain, as listed by the source G65P G65P limits assumed) above, with P65G, L69I counted along it
T1 sequence (P56856 whole entry, canonical isoform): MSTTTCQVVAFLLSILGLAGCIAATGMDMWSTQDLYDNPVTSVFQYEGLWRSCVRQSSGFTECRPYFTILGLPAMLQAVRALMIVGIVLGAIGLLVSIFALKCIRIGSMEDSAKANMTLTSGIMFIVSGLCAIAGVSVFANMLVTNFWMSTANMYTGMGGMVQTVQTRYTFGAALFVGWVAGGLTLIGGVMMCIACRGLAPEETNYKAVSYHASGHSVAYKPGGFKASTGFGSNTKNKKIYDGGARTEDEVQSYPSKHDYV
human CLDN18.2-mRFP Q29M (human), sequence (chain, as listed by the source Q29M Q29M limits assumed): as the sequence (chain, as listed by the source G65P G65P limits assumed) above, with Q29M, P65G counted along it
human CLDN18.2-mRFP N37D (human), sequence (chain, as listed by the source N37D N37D limits assumed): as the sequence (chain, as listed by the source G65P G65P limits assumed) above, with N37D, P65G counted along it
human CLDN18.2-mRFP Q47E (human), sequence (chain, as listed by the source Q47E Q47E limits assumed): as the sequence (chain, as listed by the source G65P G65P limits assumed) above, with Q47E, P65G counted along it
human CLDN18.2-mRFP E56Q (human), sequence (chain, as listed by the source E56Q E56Q limits assumed): as the sequence (chain, as listed by the source G65P G65P limits assumed) above, with E56Q, P65G counted along it

B1: 18B10-C (antibody, human IgG1, V domains shown)
VH: EFQLQQSGPELEKPGASVRISCKTSGYSFTGYNMNWVKQSNGESLEWIGNIDPYYGGTSYNQKFKGKATLTVDKSSSTAYMQLKSLTSEDSAVYYCARMYHGNAFDYWGQGTTLTVSS
VL: DIVMTQSPSSLTVTAGEKVTMSCKSSQSLLNSGNLKNYLTWYQQKPGQPPKLLIYWASTRKSGVPDRFTGSGSGTDFTLTLSSVQAEDLAVYYCQNDYSYPLTFGAGTKLELK
notes: also called chimeric 18B10
binding result [1]: no binding (tested: 10 ug/ml) | EC50 [2]: 1.87 µg/mL | EC50 [3]: 7.8 µg/mL | EC50 [4]: 0.96 µg/mL | fold increase in binding potency vs IMAB362 [5]: ~2 fold | EC50 [6]: 1.35 µg/mL | binding percentage vs wild-type CLDN18.2 [7]: 118% | binding percentage vs wild-type CLDN18.2 [8]: 112% | binding percentage vs wild-type CLDN18.2 [9]: 100% | binding percentage vs wild-type CLDN18.2 [10]: 83.5% | binding percentage vs wild-type CLDN18.2 [11]: 6.57% | binding percentage vs wild-type CLDN18.2 [12]: 69.2% | binding percentage vs wild-type CLDN18.2 [13]: 92% | binding percentage vs wild-type CLDN18.2 [14]: 106% | binding percentage vs wild-type CLDN18.2 [15]: 109% | ADCC reporter assay (Jurkat-NFAT-luc-FcγRIIIA-V176), MKN45-CLDN18.2-medium target cells [16]: 50 fold | ADCC reporter assay, NUGC4 target cells [16]: > 40 fold

— patent US20220306765A1 (SUZHOU TRANSCENTA THERAPEUTICS, published 2022)
